Molecular target: T1, propeptide (prosequence) of proteinase K from Tritirachium album Limber
T1 chain: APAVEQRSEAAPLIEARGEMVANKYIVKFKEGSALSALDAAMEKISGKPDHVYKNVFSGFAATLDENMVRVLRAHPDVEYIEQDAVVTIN

B1: mature recombinant proteinase K from Tritirachium album Limber (processed, natured from pro-proteinase K) (protein)
chain: AAQTNAPWGLARISSTSPGTSTYYYDESAGQGSCVYVIDTGIEASHPEFEGRAQMVKTYYYSSRDGNGHGTHCAGTVGSRTYGVAKKTQLFGVKVLDDNGSGQYSTIIAGMDFVASDKNNRNCPKGVVASLSLGGGYSSSVNSAAARLQSSGVMVAVAAGNNNADARNYSPASEPSVCTVGASDRYDRRSSFSNYGSVLDIFGPGTSILSTWIGGSTRSISGTSMATPHVAGLAAYLMTLGKTTAASACRYIADTANKGDLSNIPFGTVNLLAYNNYQA
  proteinase K activity (chromogenic substrate test) of gel filtration fractions: no activity is found without prior activation

— patent US20070099283
